Data on 1 molecule can be found in patent US20260034234A1 (AGENSYS, published 2026).

For assay [1], the target named is T1, 191P4D12 (human, wild type, on cells) (human, UniProt Q96NY8 32-510).
T1 construct: 510 amino acid ORF expressed on PC3, RAT/Rat1(E) cells and present in cancer cell lines and tumor specimens; also called human 191P4D12; wild-type 191P4D12
T1 sequence: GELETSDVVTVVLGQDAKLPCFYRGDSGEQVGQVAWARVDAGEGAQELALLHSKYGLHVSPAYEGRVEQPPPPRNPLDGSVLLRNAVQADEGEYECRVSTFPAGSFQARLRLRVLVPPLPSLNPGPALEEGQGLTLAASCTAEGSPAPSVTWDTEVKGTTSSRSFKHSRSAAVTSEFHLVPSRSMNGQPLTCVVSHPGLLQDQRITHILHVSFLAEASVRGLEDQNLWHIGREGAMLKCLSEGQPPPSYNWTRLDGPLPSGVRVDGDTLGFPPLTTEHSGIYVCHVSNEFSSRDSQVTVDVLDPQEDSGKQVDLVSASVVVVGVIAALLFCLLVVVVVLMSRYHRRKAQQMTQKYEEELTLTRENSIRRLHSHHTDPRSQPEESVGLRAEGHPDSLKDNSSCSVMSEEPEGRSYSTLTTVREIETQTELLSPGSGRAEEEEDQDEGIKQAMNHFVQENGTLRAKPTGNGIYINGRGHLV
Nature of the assay: FACS saturation binding on PC3-human-191P4D12 cells. How it is done: (§1) Ha22-2(2,4)6.1vcMMAE was tested for its binding affinity to 191P4D12 expressed on the surface of PC3-human-191P4D12, PC3-Cynomolgus-191P4D12, and PC3-rat-191P4D12 cells respectively. Briefly, eleven (11) dilutions of Ha22-2(2,4)6.1vcMMAE were incubated with each of the cell types (50,000 cells per well) overnight at 4° C. at a final concentration of 160 nM to 0.011 nM. At the end of the incubation, cells are washed and incubated with anti-hIgG-PE detection antibody for 45 min at 4° C. After washing the unbound detection antibodies, the cells are analyzed by FACS. MFI values were entered into Graphpad Prisim software and analyzed using the one site binding (hyperbola) equation of Y=Bmax*X/(Kd+X) to generate Ha22-2(2,4)6.1vcMMAE saturation curves shown also in FIGS. 6-8 respectively. Bmax is the MFI value at maximal binding of Ha22-2(2,4)6.1vcMMAE to 191P4D12; Kd is the Ha22-2(2,4)6.1vcMMAE binding affinity which is the concentration of Ha22-2(2,4)6.1vcMMAE required to reach half-maximal binding.

The target of assay [2] is T2, Rat 191P4D12 (on PC3 cells) (rat, UniProt D3ZET1 31-509).
T2 construct: whole, on cells; also called PC3-rat-191P4D12; Rat ortholog
T2 sequence: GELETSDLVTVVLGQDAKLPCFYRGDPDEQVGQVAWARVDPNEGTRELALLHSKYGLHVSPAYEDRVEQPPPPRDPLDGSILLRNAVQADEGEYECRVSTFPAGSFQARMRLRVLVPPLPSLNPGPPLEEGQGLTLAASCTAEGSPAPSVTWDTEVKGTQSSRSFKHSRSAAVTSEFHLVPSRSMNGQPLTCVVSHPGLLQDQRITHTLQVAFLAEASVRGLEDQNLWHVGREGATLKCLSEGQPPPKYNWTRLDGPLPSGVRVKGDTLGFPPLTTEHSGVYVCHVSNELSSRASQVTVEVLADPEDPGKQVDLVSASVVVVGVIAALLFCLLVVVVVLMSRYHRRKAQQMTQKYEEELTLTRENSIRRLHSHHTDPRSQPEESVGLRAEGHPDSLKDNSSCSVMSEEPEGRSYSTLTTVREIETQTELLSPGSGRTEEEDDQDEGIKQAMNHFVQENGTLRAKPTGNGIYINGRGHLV
Nature of the assay: FACS saturation binding on PC3-rat-191P4D12 cells. As for the experimental part: as §1

Assay [3] concerns the target T3, Cynomolgus 191P4D12 (on PC3 cells) (cynomolgus monkey, UniProt A0A2K5WES1 32-510).
T3 construct: also called PC3-Cynomolgus-191P4D12; Cyno ortholog
T3 sequence: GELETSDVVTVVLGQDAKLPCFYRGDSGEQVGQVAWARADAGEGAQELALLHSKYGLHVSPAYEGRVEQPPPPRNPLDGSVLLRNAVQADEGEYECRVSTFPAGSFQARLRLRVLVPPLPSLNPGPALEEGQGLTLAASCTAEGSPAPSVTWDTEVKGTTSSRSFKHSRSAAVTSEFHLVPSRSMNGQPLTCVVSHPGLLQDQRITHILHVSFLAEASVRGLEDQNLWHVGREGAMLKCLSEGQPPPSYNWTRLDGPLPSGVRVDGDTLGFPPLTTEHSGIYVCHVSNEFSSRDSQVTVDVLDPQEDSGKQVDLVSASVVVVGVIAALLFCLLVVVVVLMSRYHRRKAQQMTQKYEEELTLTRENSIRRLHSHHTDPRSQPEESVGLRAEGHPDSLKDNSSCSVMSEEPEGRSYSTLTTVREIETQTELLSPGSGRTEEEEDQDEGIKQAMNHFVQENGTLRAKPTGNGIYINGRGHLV
Nature of the assay: FACS saturation binding on PC3-Cynomolgus-191P4D12 cells. As for the experimental part:
as §1

For assay [4], the target named is T4, purified recombinant 191P4D12 (ECD amino acids 1-348) (human, UniProt Q96NY8 32-348).
T4 construct: Range as printed
T4 sequence: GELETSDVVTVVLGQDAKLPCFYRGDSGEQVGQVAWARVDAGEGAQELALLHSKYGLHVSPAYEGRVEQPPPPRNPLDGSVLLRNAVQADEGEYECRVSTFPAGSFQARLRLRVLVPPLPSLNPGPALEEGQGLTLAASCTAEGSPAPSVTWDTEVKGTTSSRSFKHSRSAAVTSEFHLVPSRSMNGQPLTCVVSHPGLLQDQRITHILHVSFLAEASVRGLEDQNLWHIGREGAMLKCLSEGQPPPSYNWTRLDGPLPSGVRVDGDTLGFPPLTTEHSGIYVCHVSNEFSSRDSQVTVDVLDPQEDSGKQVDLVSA
Nature of the assay: SPR (Biacore), ADC captured by anti-human Fc, 191P4D12 ECD as analyte. How it is done: The affinity of Ha22-2(2,4)6.1 MAb and Ha22-2(2,4)6.1vcMMAE to purified recombinant 191P4D12 (ECD amino acids 1-348) was performed by Surface Plasmon Resonance (SPR) (BIAcore). Briefly, goat-anti-human Fcγ polyclonal Abs (Jackson Immuno Research Labs, Inc.) were covalently immobilized on the surface of a CM5 sensor chip (Biacore). Purified Ha22-2(2,4)6.1 MAb or Ha22-2(2,4)6.1vcMMAE were then captured on the surface of said chip. On average, approximately 300 RUs of test Ha22-2(2,4)6.1 MAb or Ha22-2(2,4)6.1vcMMAE was captured in every cycle. Subsequently, a series of five (5) to six (6) dilutions of recombinant 191P4D12 (ECD amino acids 1-348) ranging from 1 nM to 100 nM was injected over such surface to generate binding curves (sensograms) that were processed and globally fit to a 1:1 interaction model using BIAevaluation 3.2 and CLAMP software (Myszka and Morton, 1998) (FIG. 22). Table V summarizes association and dissociation rate constants as well as affinities of Ha22-2(2,4)6.1 MAb and Ha22-2(2,4)6.1 vcMMAE to recombinant 191P4D12 (ECD amino acids 1-348).
(Surface plasmon resonance follows binding to a sensor surface in real time, without labels.)

The term Kd denotes a measure of binding affinity in units of concentration. What is called koff is the rate constant with which the complex falls apart. A word on the kon: it is a measure of how fast the partners come together.

B1: Ha22-2(2,4)6.1vcMMAE (antibody, human IgG1, kappa, V domains shown)
VH: EVQLVESGGGLVQPGGSLRLSCAASGFTFSSYNMNWVRQAPGKGLEWVSYISSSSSTIYYADSVKGRFTISRDNAKNSLSLQMNSLRDEDTAVYYCARAYYYGMDVWGQGTTVTVSS
VL: DIQMTQSPSSVSASVGDRVTITCRASQGISGWLAWYQQKPGKAPKFLIYAASTLQSGVPSRFSGSGSGTDFTLTISSLQPEDFATYYCQQANSFPPTFGGGTKVEIKR
modifications: vcMMAE (Val-Cit linker, MMAE) on cysteine thiols after partial TCEP reduction, positions not given; p about 3.8 drugs per antibody
notes: also called Ha22-2(2,4)6.1ADC
With B1, the equilibrium dissociation constant (Kd) worked out at 0.69 nM in assay [1], 1.6 nM in assay [2], 0.34 nM in assay [3] and 11 nM in assay [4]. Besides, the koff in assay [4] is 0.0052 s⁻¹. Further, the kon in assay [4] came out at 450000 M⁻¹ s⁻¹.
